Literature values as cited in paper PMC7561547.

Target: Her2 (Homo sapiens) (UniProt P04626)

trastuzumab
Kd: 0.1 nM
